Experimental data published in US20040018971A1 (published 2004).

molecular target: HLA-A*0301 (purified HLA class I molecule) (human); assay: competition vs 125I standard peptide, purified HLA

Binder | relative binding ratio
LVHRDLAAR [HER2/neu peptide, position 841, 9 amino acids] | 0.004 ratio (IC50 standard/IC50 test)
MIDSECRPR [HER2/neu peptide, position 960, 9 amino acids] | 0.0017 ratio (IC50 standard/IC50 test)
LIKRRQQKIR [HER2/neu peptide, position 674, 10 amino acids] | 0.0002 ratio (IC50 standard/IC50 test)
MALESILRRR [HER2/neu peptide, position 889, 10 amino acids] | 0.0011 ratio (IC50 standard/IC50 test)
LALTLIDTNR [HER2/neu peptide, position 179, 10 amino acids] | -0.0002 ratio (IC50 standard/IC50 test)
KIRKYTMR [HER2/neu peptide, position 681, 8 amino acids] | 0.001 ratio (IC50 standard/IC50 test)
HSCVDLDDK [HER2/neu peptide, position 632, 9 amino acids] | -0.0002 ratio (IC50 standard/IC50 test)
HADGGKVPIK [HER2/neu peptide, position 878, 10 amino acids] | 0.0003 ratio (IC50 standard/IC50 test)
GVGSPYVSR [HER2/neu peptide, position 776, 9 amino acids] | 0.001 ratio (IC50 standard/IC50 test)
LTLIDTNRSR [HER2/neu peptide, position 181, 10 amino acids] | 0.0002 ratio (IC50 standard/IC50 test)
KIPVAIKVLR [HER2/neu peptide, position 747, 10 amino acids] | 0.0009 ratio (IC50 standard/IC50 test)
LSPGKNGVVK [HER2/neu peptide, position 1173, 10 amino acids] | -0.0002 ratio (IC50 standard/IC50 test)
LACHQLCAR [HER2/neu peptide, position 509, 9 amino acids] | -0.0002 ratio (IC50 standard/IC50 test)

molecular target: T1, HLA-A*1101 (purified HLA class I molecule) (human); assay: competition vs 125I standard peptide, purified HLA
T1 construct: Purified MHC molecule

Binder | relative binding ratio
LVHRDLAAR [HER2/neu peptide, position 841, 9 amino acids] | 0.0014 ratio (IC50 standard/IC50 test)
MIDSECRPR [HER2/neu peptide, position 960, 9 amino acids] | 0.0006 ratio (IC50 standard/IC50 test)
LIKRRQQKIR [HER2/neu peptide, position 674, 10 amino acids] | 0.0001 ratio (IC50 standard/IC50 test)
MALESILRRR [HER2/neu peptide, position 889, 10 amino acids] | 0.0003 ratio (IC50 standard/IC50 test)
LALTLIDTNR [HER2/neu peptide, position 179, 10 amino acids] | 0.0003 ratio (IC50 standard/IC50 test)
KIRKYTMR [HER2/neu peptide, position 681, 8 amino acids] | 0.0004 ratio (IC50 standard/IC50 test)
HSCVDLDDK [HER2/neu peptide, position 632, 9 amino acids] | 0.0007 ratio (IC50 standard/IC50 test)
HADGGKVPIK [HER2/neu peptide, position 878, 10 amino acids] | 0.0008 ratio (IC50 standard/IC50 test)
GVGSPYVSR [HER2/neu peptide, position 776, 9 amino acids] | 0.0066 ratio (IC50 standard/IC50 test)
LTLIDTNRSR [HER2/neu peptide, position 181, 10 amino acids] | 0.0005 ratio (IC50 standard/IC50 test)
KIPVAIKVLR [HER2/neu peptide, position 747, 10 amino acids] | 0.0099 ratio (IC50 standard/IC50 test)
LSPGKNGVVK [HER2/neu peptide, position 1173, 10 amino acids] | 0.0003 ratio (IC50 standard/IC50 test)
LACHQLCAR [HER2/neu peptide, position 509, 9 amino acids] | 0.0003 ratio (IC50 standard/IC50 test)

molecular target: HLA-A*1101 (purified HLA class I molecule) (human); assay: inhibition of 125I probe peptide binding to purified HLA; ratio to standard peptide

Binder | relative binding ratio
ALESILRRR (also called Her2/neu.890 (9-mer)) [HER2/neu peptide, position 890, 9 amino acids] | 0.0006 ratio (IC50 standard / IC50 test)
GILIKRRQQK (also called Her2/neu.672 (10-mer)) [HER2/neu peptide, position 672, 10 amino acids] | 0.0014 ratio (IC50 standard / IC50 test)
AMPNQAQMR (also called Her2/neu.705 (9-mer)) [HER2/neu peptide, position 705, 9 amino acids] | 0.0006 ratio (IC50 standard / IC50 test)
GLACHQLCAR (also called Her2/neu.508 (10-mer)) [HER2/neu peptide, position 508, 10 amino acids] | 0.0001 ratio (IC50 standard / IC50 test)
DLAARNVLVK (also called Her2/neu.845 (10-mer)) [HER2/neu peptide, position 845, 10 amino acids] | 0.0007 ratio (IC50 standard / IC50 test)
ALTLIDTNR (also called Her2/neu.180 (9-mer)) [HER2/neu peptide, position 180, 9 amino acids] | 0.0005 ratio (IC50 standard / IC50 test)
CAAGCTGPK (also called Her2/neu.240 (9-mer)) [HER2/neu peptide, position 240, 9 amino acids] | 0.0021 ratio (IC50 standard / IC50 test)
ETEYHADGGK (also called Her2/neu.874 (10-mer)) [HER2/neu peptide, position 874, 10 amino acids] | 0.0001 ratio (IC50 standard / IC50 test)
EVTAEDGTQR (also called Her2/neu.321 (10-mer)) [HER2/neu peptide, position 321, 10 amino acids] | 0.0001 ratio (IC50 standard / IC50 test)
CLLDHVRENR (also called Her2/neu.805 (10-mer)) [HER2/neu peptide, position 805, 10 amino acids] | 0.0001 ratio (IC50 standard / IC50 test)
CTGTDMKLR (also called Her2/neu.26 (9-mer)) [HER2/neu peptide, position 26, 9 amino acids] | 0.0005 ratio (IC50 standard / IC50 test)
GLGISWLGLR (also called Her2/neu.447 (10-mer)) [HER2/neu peptide, position 447, 10 amino acids] | 0.0001 ratio (IC50 standard / IC50 test)
GLPREYVNAR (also called Her2/neu.549 (10-mer)) [HER2/neu peptide, position 549, 10 amino acids] | 0.0003 ratio (IC50 standard / IC50 test)
DVRPQPPSPR (also called Her2/neu.1144 (10-mer)) [HER2/neu peptide, position 1144, 10 amino acids] | 0.0001 ratio (IC50 standard / IC50 test)

molecular target: T2, HLA-A*0301 (purified HLA class I molecule) (human); assay: as above
T2 construct: also called A3

Binder | relative binding ratio
ALESILRRR (also called Her2/neu.890 (9-mer)) [HER2/neu peptide, position 890, 9 amino acids] | 0.0013 ratio (IC50 standard / IC50 test)
GILIKRRQQK (also called Her2/neu.672 (10-mer)) [HER2/neu peptide, position 672, 10 amino acids] | 0.015 ratio (IC50 standard / IC50 test)
AMPNQAQMR (also called Her2/neu.705 (9-mer)) [HER2/neu peptide, position 705, 9 amino acids] | 0.0004 ratio (IC50 standard / IC50 test)
GLACHQLCAR (also called Her2/neu.508 (10-mer)) [HER2/neu peptide, position 508, 10 amino acids] | 0.011 ratio (IC50 standard / IC50 test)
DLAARNVLVK (also called Her2/neu.845 (10-mer)) [HER2/neu peptide, position 845, 10 amino acids] | 0.0018 ratio (IC50 standard / IC50 test)
ALTLIDTNR (also called Her2/neu.180 (9-mer)) [HER2/neu peptide, position 180, 9 amino acids] | 0.0004 ratio (IC50 standard / IC50 test)
CAAGCTGPK (also called Her2/neu.240 (9-mer)) [HER2/neu peptide, position 240, 9 amino acids] | 0.0021 ratio (IC50 standard / IC50 test)
ETEYHADGGK (also called Her2/neu.874 (10-mer)) [HER2/neu peptide, position 874, 10 amino acids] | 0.0003 ratio (IC50 standard / IC50 test)
EVTAEDGTQR (also called Her2/neu.321 (10-mer)) [HER2/neu peptide, position 321, 10 amino acids] | 0.0002 ratio (IC50 standard / IC50 test)
CLLDHVRENR (also called Her2/neu.805 (10-mer)) [HER2/neu peptide, position 805, 10 amino acids] | 0.0003 ratio (IC50 standard / IC50 test)
CTGTDMKLR (also called Her2/neu.26 (9-mer)) [HER2/neu peptide, position 26, 9 amino acids] | 0.0002 ratio (IC50 standard / IC50 test)
GLGISWLGLR (also called Her2/neu.447 (10-mer)) [HER2/neu peptide, position 447, 10 amino acids] | 0.0037 ratio (IC50 standard / IC50 test)
GLPREYVNAR (also called Her2/neu.549 (10-mer)) [HER2/neu peptide, position 549, 10 amino acids] | 0.0002 ratio (IC50 standard / IC50 test)
DVRPQPPSPR (also called Her2/neu.1144 (10-mer)) [HER2/neu peptide, position 1144, 10 amino acids] | 0.0003 ratio (IC50 standard / IC50 test)

molecular target: T3, HLA-A*2401 (human); assay: inhibition of 125I-labelled standard peptide binding to purified HLA, gel filtration
T3 construct: Purified HLA class I molecule (kind: MHC class I); also called A*2402

Binder | relative binding ratio
DFGLARLL (also called Her2/neu.863 (8-mer)) [HER2/neu peptide, position 863, 8 amino acids] | 0.0005 ratio (IC50 of standard peptide / IC50 of test peptide)
CYQDTILWKDI (also called Her2/neu.162 (11-mer)) [HER2/neu peptide, position 162, 11 amino acids] | 0.0016 ratio (IC50 of standard peptide / IC50 of test peptide)
EFAGCKKI (also called Her2/neu.363 (8-mer)) [HER2/neu peptide, position 363, 8 amino acids] | -0.0003 ratio (IC50 of standard peptide / IC50 of test peptide)
AFSPAFDNL (also called Her2/neu.1212 (9-mer)) [HER2/neu peptide, position 1212, 9 amino acids] | 0.0011 ratio (IC50 of standard peptide / IC50 of test peptide)
